Measured values taken from publication PMC10349056, “The combined action of the intracellular regions regulates FGFR2 kinase activity” (Communications Biology, 2023).
Where no end group is shown, it is not given here.

Assays:
Experiment in all cases: MST; JM labelled with Atto 488, serial dilutions of KD titrated, 25 °C; 20 mM HEPES, 150 mM NaCl, 1 mM TCEP, 0.01% Tween 20, pH 7.5; the text calls the constant of KD^pY1 apparent (Kd,app)
Settings in all cases: both partners purified
[1] = biological target: T1, FGFR2 kinase domain, phosphorylation state pY5 (UniProt P21802-3 465-764, Y734F (worked out from the printed order of phosphorylation), phosphotyrosine at 657, 587, 467, 589 and 658)
T1 construct: FGFR2 (IIIb isoform) kinase domain, residues 465-764; numbers count on: FGFR2IIIb (C1 isoform, 822 residues); also called KD^pY5; source: E. coli BL21(DE3), purified (Talon, Superdex 75)
T1 sequence (P21802 464-763 Y733F): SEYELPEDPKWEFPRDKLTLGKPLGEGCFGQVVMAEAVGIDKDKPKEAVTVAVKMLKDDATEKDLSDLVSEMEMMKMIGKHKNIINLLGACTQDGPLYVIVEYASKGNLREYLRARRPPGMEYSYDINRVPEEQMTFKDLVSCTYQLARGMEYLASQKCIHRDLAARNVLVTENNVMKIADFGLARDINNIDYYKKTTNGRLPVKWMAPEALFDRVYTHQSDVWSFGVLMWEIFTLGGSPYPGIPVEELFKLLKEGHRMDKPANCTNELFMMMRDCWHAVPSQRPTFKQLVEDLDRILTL

[2] = biological target: T2, FGFR2 kinase domain K518I (catalytically inactive, non-phosphorylatable) (UniProt P21802-3 465-764, K518I)
T2 construct: FGFR2 (IIIb isoform) kinase domain, residues 465-764; numbers count on: FGFR2IIIb (C1 isoform, 822 residues); also called KD^K518I; source: E. coli BL21(DE3), purified (Talon, Superdex 75)
T2 sequence (P21802 464-763 K517I): as the sequence (P21802 464-763 Y733F) above, with K54I, F270Y counted along it

[3] = biological target: T3, FGFR2 kinase domain, phosphorylation state pY4 (UniProt P21802-3 465-764, Y658F (worked out from the printed order of phosphorylation) | Y734F (worked …, phosphotyrosine at 657, 587, 467 and 589))
T3 construct: FGFR2 (IIIb isoform) kinase domain, residues 465-764; numbers count on: FGFR2IIIb (C1 isoform, 822 residues); also called KD^pY4; source: E. coli BL21(DE3), purified (Talon, Superdex 75)
T3 sequence (P21802 464-763 Y657F/Y733F): as the sequence (P21802 464-763 Y733F) above, with Y194F counted along it

[4] = biological target: T4, FGFR2 kinase domain, phosphorylation state pY2 (UniProt P21802-3 465-764, Y467F (worked out from the printed order of phosphorylation) | Y589F (worked …, phosphotyrosine at 657 and 587))
T4 construct: FGFR2 (IIIb isoform) kinase domain, residues 465-764; numbers count on: FGFR2IIIb (C1 isoform, 822 residues); also called KD^pY2; source: E. coli BL21(DE3), purified (Talon, Superdex 75)
T4 sequence (P21802 464-763 Y466F/Y588F/Y657F/Y733F): as the sequence (P21802 464-763 Y733F) above, with Y3F, Y125F, Y194F counted along it

B1: FGFR2 juxtamembrane region (407-462), labelled with Atto 488 (peptide, UniProt P21802-3 407-462, looked up)
chain: KPDFSSQPAVHKLTKRIPLRRQVTVSAESSSSMNSNTPLVRITTRLSSTADTPMLA
modifications: also: labelled with Atto 488
notes: FGFR2 (IIIb isoform) juxtamembrane region, residues 407-462; numbers count on: FGFR2IIIb (C1 isoform, 822 residues); also called JM; 407Juxtamembrane region462; source: synthetic peptide, bought: Genscript
With B1 the Kd [1] was 22.5 ± 1.8 µM, the Kd [2] was 13.4 ± 0.994 µM and the Kd [3] was 10.2 ± 1.33 µM. It also gave a Kd [4] of 6.98 ± 0.877 µM.
